Data reported in article PMC3785434.

Assays:
Assay in all cases: SEC; HiLoad 16/60 Superdex 75, 50 mM sodium phosphate pH 7.4, 50 µg sample, 0.6 mL/min, calibrated with mass standards; self-association of the free light chain (dimer)
[1] = biological target: Bence Jones protein from AL-2 patient (human) (UniProt P01701)
[2] = biological target: recombinant free immunoglobulin lambda light chain of AL amyloidosis patient AL-1 (human) (UniProt P01699)
[3] = biological target: recombinant free immunoglobulin lambda light chain of AL amyloidosis patient AL-2 (human) (UniProt P01701)
[4] = biological target: recombinant free immunoglobulin lambda light chain of AL amyloidosis patient AL-3 (human) (UniProt P01699)

Bence Jones protein from AL-2 patient (from UniProt P01701 20-117) (natural protein)
stoichiometry N [1]: 2

recombinant free immunoglobulin lambda light chain of AL amyloidosis patient AL-1 (from UniProt P01699 20-117)
stoichiometry N [2]: 2

recombinant free immunoglobulin lambda light chain of AL amyloidosis patient AL-2 (from UniProt P01701 20-117)
stoichiometry N [3]: 2

recombinant free immunoglobulin lambda light chain of AL amyloidosis patient AL-3 (from UniProt P01699 20-117)
stoichiometry N [4]: 2
